The results in this text go back to PMC11417371, “ENL reads histone β-hydroxybutyrylation to modulate gene transcription” (Nucleic Acids Research, 2024).

By Kd is commonly meant the concentration at which binding is half-saturated. Read a low Kd as a tighter complex.

The target in assay [1] is Probe H3K9bhb (Kbhb-installed histone H3 peptide on gold nanoparticles with photo-cross-linker-linked PEG). Put plainly: affinity purification with mass spectrometry; photoaffinity enrichment with probes H3K9bhb and H3K9, read out by parallel reaction monitoring (PRM) mass spectrometry.
In the next assay the target is T1, GAS41 (UniProt O95619 1-227).
T1 construct: GAS41 (YEATS4), a YEATS domain-containing protein
The assay is described as follows: ITC; MicroCal PEAQ ITC, 15°C; protein at 100 μM dropped into the 1000 μM peptide, 19 drops; one set of binding sites model. The settings on record: both partners purified.

The next assay addresses T2, AF9 (UniProt P42568 1-568).
T2 construct: AF9 (MLLT3), a YEATS domain-containing protein
T2 sequence (looked up): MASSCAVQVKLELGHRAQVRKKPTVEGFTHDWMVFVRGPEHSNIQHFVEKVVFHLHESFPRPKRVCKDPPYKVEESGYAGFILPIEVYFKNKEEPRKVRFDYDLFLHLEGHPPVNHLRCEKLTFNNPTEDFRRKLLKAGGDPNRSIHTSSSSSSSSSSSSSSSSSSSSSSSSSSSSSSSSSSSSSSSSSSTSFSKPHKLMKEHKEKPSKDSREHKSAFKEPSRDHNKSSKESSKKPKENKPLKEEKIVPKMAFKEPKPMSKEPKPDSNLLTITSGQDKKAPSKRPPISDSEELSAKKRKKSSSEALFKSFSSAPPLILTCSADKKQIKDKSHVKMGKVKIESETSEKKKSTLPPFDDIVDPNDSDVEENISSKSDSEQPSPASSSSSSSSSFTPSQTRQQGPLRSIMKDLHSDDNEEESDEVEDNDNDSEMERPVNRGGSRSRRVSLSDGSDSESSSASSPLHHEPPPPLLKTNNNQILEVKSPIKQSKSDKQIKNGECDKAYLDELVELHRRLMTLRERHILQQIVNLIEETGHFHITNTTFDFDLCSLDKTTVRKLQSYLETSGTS
The description is as above. The settings on record: both partners purified.

T1 sequence (O95619 whole entry, the tested form may be a part): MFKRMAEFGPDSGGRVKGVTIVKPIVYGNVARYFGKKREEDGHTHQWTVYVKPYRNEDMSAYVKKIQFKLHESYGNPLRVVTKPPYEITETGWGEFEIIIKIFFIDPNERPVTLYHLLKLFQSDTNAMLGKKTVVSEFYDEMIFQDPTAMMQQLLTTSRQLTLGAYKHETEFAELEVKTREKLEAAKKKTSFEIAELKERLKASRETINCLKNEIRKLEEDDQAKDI

B1: ENL (endogenous) (natural protein)
chain: MDNQCTVQVRLELGHRAQLRKKPTTEGFTHDWMVFVRGPEQCDIQHFVEKVVFWLHDSFPKPRRVCKEPPYKVEESGYAGFIMPIEVHFKNKEEPRKVCFTYDLFLNLEGNPPVNHLRCEKLTFNNPTTEFRYKLLRAGGVMVMPEGADTVSRPSPDYPMLPTIPLSAFSDPKKTKPSHGSKDANKESSKTSKPHKVTKEHRERPRKDSESKSSSKELEREQAKSSKDTSRKLGEGRLPKEEKAPPPKAAFKEPKMALKETKLESTSPKGGPPPPPPPPPRASSKRPATADSPKPSAKKQKKSSSKGSRSAPGTSPRTSSSSSFSDKKPAKDKSSTRGEKVKAESEPREAKKALEVEESNSEDEASFKSESAQSSPSNSSSSSDSSSDSDFEPSQNHSQGPLRSMVEDLQSEESDEDDSSSGEEAAGKTNPGRDSRLSFSDSESDNSADSSLPSREPPPPQKPPPPNSKVSGRRSPESCSKPEKILKKGTYDKAYTDELVELHRRLMALRERNVLQQIVNLIEETGHFNVTNTTFDFDLFSLDETTVRKLQSCLEAVAT
Molecule B1 displayed a fold enrichment over probe H3K9 in assay [1] of 3.9 fold.

B2: β-hydroxybutyryl histone H3 1-17 peptide (H3K9bhb) (peptide, UniProt P68431 2-18, looked up)
peptide: ARTKQTARKSTGGKAPR
modifications: β-hydroxybutyryl-lysine at K9
notes: histone H3, residues 1-17; The text calls the ITC peptides 'histone H3K14 (1–17) peptides', the legend 'H31-17 peptides'; also called H3K9bhb peptide; source: synthetic peptide (Beijing SciLight Biotechnology, HPLC purified)
B2: the Kd in the assay with GAS41 stood at 6.7 µM; with AF9, 11 µM.
